This note sets out measurements from PMC2481302.

For the assay, the target named is human purified platelet factor 4/CXCL4 (human). The assay is described as follows: cell attachment assay; αvβ3-CHO and mock-transfected CHO cells plated on microtiter wells coated with CXCL4 or CXCL4/CTF at the indicated concentrations; 60 min at 37°C in serum-free medium with 0.5% BSA; attached cells stained with Coomassie blue, absorbance at 620 nm; also with 0.25 mM Mn2+ or 2 mM Mg2+.

In the case of “human αvβ3 integrin on CHO cells (αvβ3-CHO, clone A06) (from UniProt P06756 31-1048; P05106 27-788) (receptor)”, the increase of cell attachment with Mn2+ or Mg2+ against no added cation was found to be 25%.
